For assay [1], the target named is T1, Mouse TYRP1 extracellular domain (ECD), monomeric fusion to human Fc domain with knob-into-hole and PG LALA … (mouse, UniProt P01857 104-328 = IgG part).
T1 construct: also called マウスTYRP1
The assay is described as follows: SPR (Biacore T200), TYRP1 ECD-Fc captured by anti-PGLALA antibody, Fab 3-fold dilution series as analyte, 1:1 Langmuir fit. For orientation: Surface plasmon resonance follows binding to a sensor surface in real time, without labels.

Assay [2] addresses T2, Cynomolgus TYRP1 extracellular domain (ECD), monomeric fusion to human Fc domain with knob-into-hole and PG … (cynomolgus monkey, UniProt P01857 104-328 = IgG part).
T2 construct: also called カニクイザルTYRP1
The assay is described as above.

Assay [3] concerns the target T3, Human TYRP1 extracellular domain (ECD), monomeric fusion to human Fc domain with knob-into-hole and PG LALA … (human, UniProt P01857 104-328 = IgG part).
T3 construct: also called ヒトTYRP1
Described as above.

The target in assay [4] is T4, Human EGFRvIII expressed on cells (CHO-EGFRvIII, DK-MG, U87MG-EGFRvIII) (human, UniProt P00533 298-1210).
T4 construct: also called EGFRvIII; huEGFRvIII
The assay is described as follows: flow cytometry on CHO-EGFRvIII and EGFRvIII-positive DK-MG cells.

Assay [5] deals with T4, Human EGFRvIII expressed on cells …. The assay is described as follows: SPR and flow cytometry on U87MG-EGFRvIII and MKN-45 cells, compared with the parental binder. On the technique in general: Flow cytometry measures light scatter and fluorescence of single cells or particles in a stream.
The target is the same in assay [6]. The assay is described as follows: flow cytometry on CHO-EGFRvIII cells, TCB against the corresponding IgG.
In assay [7] the target is T5, Recombinant human CD3 antigen: heterodimer of CD3 delta and CD3 epsilon ectodomains fused to human Fc domain … (human).
T5 construct: also called 組換えCD3; ヒトCD3
The assay is described as follows: SPR (Biacore T200), antibody captured by anti-Fab, CD3 antigen 10 ug/ml, relative active concentration after 14 days of temperature stress.

In assay [8] the target is T5, Recombinant human CD3 antigen: …. Put plainly: SPR (Biacore T200), TCB captured at 20 nM by anti-PGLALA antibody, CD3 antigen as analyte, 1:1 Langmuir fit.
Assay [9] deals with T6, Recombinant cynomolgus CD3 antigen: heterodimer of cynomolgus CD3 delta and CD3 epsilon ectodomains fused to … (cynomolgus monkey).
T6 construct: also called カニクイザルCD3
The description is as above.

In assay [10] the target is T7, EGFRvIII-ECD avi his (extracellular domain of human EGFRvIII fused to C-terminal Avi-tag and His-tag) (human).
T7 construct: also called 組み換えEGFRvIII; EGFRvIII抗原
The assay is described as follows: SPR (Biacore T200), TCB (5 nM) captured by anti-Fc antibody, EGFRvIII-ECD avi his 3-fold dilution series as analyte, 1:1 Langmuir fit.

For assay [11], the target named is T5, Recombinant human CD3 antigen: …. Put plainly: SPR (Biacore T200), TCB captured by anti-PGLALA antibody, CD3 antigen 12.35-3000 nM as analyte, 1:1 Langmuir fit.
The target of assay [12] is T6, Recombinant cynomolgus CD3 antigen: …. The assay is described as above.

Data on nine molecules can be found in patent publication JP2022028645A (dated 2022).

B1: TYRP1 Fab断片 (Fab fragment of the humanized TA99-derived TYRP1 binder, made by plasmin digestion of the corresponding antibody) (Fab, V domains shown)
VH: QVQLVQSGAEVKKPGASVKVSCKASGFNIKDYFLHWVRQAPGQGLEWMGWINPDNGNTVYAQKFQGRVTMTADTSTSTVYMELSSLRSEDTAVYYCTRRDYTYEKAALDYWGQGTLVTVSS
VL: DIQMTQSPSSLSASVGDRVTITCRASGNIYNYLAWYQQKPGKVPKLLIYDAKTLADGVPSRFSGSGSGTDFTLTISSLQPEDVATYYCQHFWSLPFTFGQGTKLEIK
notes: also called TYRP1 Fab
As for B1, the Kd is 0.53 nM in [1], 0.18 nM in assay [2] and 0.13 nM in [3].

B2: EGFRvIII IgG PGLALA P056.021 (antibody, human IgG1, V domains shown)
VH: EVQLVQSGAEVKKPGESLKISCKGSGYSFDSYWIAWVRQMPGKGLEWMGVIHPYDSDTRYSPSFQGQVTISADKSISTAYLQWSSLKASDTAMYYCARVSRSSYAFDYWGQGTLVTVSS
VL: not shown
notes: Human IgG1 with P329G L234A L235A; also called P056.021
B2: the binding result in assay [4] is “binds”.

B3: EGFRvIII IgG PGLALA P063.056 (affinity-matured EGFRvIII binder) (antibody, human IgG1, V domains shown)
VH: EVQLVQSGAEVKKPGESLKISCKGSGYSFDSYWIAWVRQMPGKGLEWMGVIHPYDSDTRYSPSFQGQVTISADKSISTAYLQWSSLKASDTAMYYCARVSRSSYAFDYWGQGTLVTVSS
VL: not shown
notes: Human IgG1 PGLALA; also called P063.056
Take B3: in [5], the binding result is listed as “binds”.

B4: EGFRvIII TCB P056.021 (with CD3orig, 2+1 IgG CrossFab inverted) (bispecific antibody, V domains shown)
VH 1: EVQLVQSGAEVKKPGESLKISCKGSGYSFDSYWIAWVRQMPGKGLEWMGVIHPYDSDTRYSPSFQGQVTISADKSISTAYLQWSSLKASDTAMYYCARVSRSSYAFDYWGQGTLVTVSS
VL 1: not shown
VH 2: not shown
VL 2: QAVVTQEPSLTVSPGGTVTLTCGSSTGAVTTSNYANWVQEKPGQAFRGLIGGTNKRAPGTPARFSGSLLGGKAALTLSGAQPEDEAEYYCALWYSNLWVFGGGTKLTVL
notes: only the variable domains can be tied to it; also called P056.021 EGFRvIII TCB; parental EGFRvIII TCB
As to B4, the binding result in assay [6] is “binds”.

B5: CD3 opt ヒトIgG1 PGLALA (optimized CD3 binder, human IgG1 with P329G L234A L235A) (antibody, V domains shown)
VH: EVQLLESGGGLVQPGGSLRLSCAASGFQFSSYAMNWVRQAPGKGLEWVSRIRSKYNNYATYYADSVKGRFTISRDDSKNTLYLQMNSLRAEDTAVYYCVRHTTFPSSYVSYYGYWGQGTLVTVSS
VL: QAVVTQEPSLTVSPGGTVTLTCGSSTGAVTTSNYANWVQEKPGQAFRGLIGGTNKRAPGTPARFSGSLLGGKAALTLSGAQPEDEAEYYCALWYSNLWVFGGGTKLTVLR
notes: also called CD3opt; CD3opt IgG PGLALA
Regarding B5, the binding result in [7] is on record as “binds”.

B6: EGFRvIII TCB CD3 opt (EGFRvIII binder P063.056 and optimized CD3 binder, 2+1 IgG CrossFab inverted) (bispecific antibody)
heavy 1: not shown
heavy 2: EVQLVQSGAEVKKPGESLKISCKGSGYSFDSYWIAWVRQMPGKGLEWMGVIHPYDSDTRYSPSFQGQVTISADKSISTAYLQWSSLKASDTAMYYCARVSRSSYAFDYWGQGTLVTVSSASTKGPSVFPLAPSSKSTSGGTAALGCLVEDYFPEPVTVSWNSGALTSGVHTFPAVLQSSGLYSLSSVVTVPSSSLGTQTYICNVNHKPSNTKVDEKVEPKSCDKTHTCPPCPAPEAAGGPSVFLFPPKPKDTLMISRTPEVTCVVVDVSHEDPEVKFNWYVDGVEVHNAKTKPREEQYNSTYRVVSVLTVLHQDWLNGKEYKCKVSNKALGAPIEKTISKAKGQPREPQVCTLPPSRDELTKNQVSLSCAVKGFYPSDIAVEWESNGQPENNYKTTPPVLDSDGSFFLVSKLTVDKSRWQQGNVFSCSVMHEALHNHYTQKSLSLSP
light 1: not shown
light 2: EVQLLESGGGLVQPGGSLRLSCAASGFQFSSYAMNWVRQAPGKGLEWVSRIRSKYNNYATYYADSVKGRFTISRDDSKNTLYLQMNSLRAEDTAVYYCVRHTTFPSSYVSYYGYWGQGTLVTVSSASVAAPSVFIFPPSDEQLKSGTASVVCLLNNFYPREAKVQWKVDNALQSGNSQESVTEQDSKDSTYSLSSTLTLSKADYEKHKVYACEVTHQGLSSPVTKSFNRGEC
notes: Chain roles inferred as for TYRP1 TCB; also called EGFRvIII TCB; P063.056 EGFRvIII TCB with CD3opt
As to B6, the Kd in [8] came out at 30 nM; in assay [9] it was 20 nM; in assay [10] it was 6 nM.

B7: TYRP1 TCB CD3 opt (T cell bispecific antibody to CD3 and TYRP1 with optimized CD3 binder, 2+1 IgG CrossFab inverted, charge modifications, PGLALA) (bispecific antibody)
heavy 1: not shown
heavy 2: QVQLVQSGAEVKKPGASVKVSCKASGFNIKDYFLHWVRQAPGQGLEWMGWINPDNGNTVYAQKFQGRVTMTADTSTSTVYMELSSLRSEDTAVYYCTRRDYTYEKAALDYWGQGTLVTVSSASTKGPSVFPLAPSSKSTSGGTAALGCLVEDYFPEPVTVSWNSGALTSGVHTFPAVLQSSGLYSLSSVVTVPSSSLGTQTYICNVNHKPSNTKVDEKVEPKSCDKTHTCPPCPAPEAAGGPSVFLFPPKPKDTLMISRTPEVTCVVVDVSHEDPEVKFNWYVDGVEVHNAKTKPREEQYNSTYRVVSVLTVLHQDWLNGKEYKCKVSNKALGAPIEKTISKAKGQPREPQVCTLPPSRDELTKNQVSLSCAVKGFYPSDIAVEWESNGQPENNYKTTPPVLDSDGSFFLVSKLTVDKSRWQQGNVFSCSVMHEALHNHYTQKSLSLSP
light 1: DIQMTQSPSSLSASVGDRVTITCRASGNIYNYLAWYQQKPGKVPKLLIYDAKTLADGVPSRFSGSGSGTDFTLTISSLQPEDVATYYCQHFWSLPFTFGQGTKLEIKRTVAAPSVFIFPPSDRKLKSGTASVVCLLNNFYPREAKVQWKVDNALQSGNSQESVTEQDSKDSTYSLSSTLTLSKADYEKHKVYACEVTHQGLSSPVTKSFNRGEC
light 2: EVQLLESGGGLVQPGGSLRLSCAASGFQFSSYAMNWVRQAPGKGLEWVSRIRSKYNNYATYYADSVKGRFTISRDDSKNTLYLQMNSLRAEDTAVYYCVRHTTFPSSYVSYYGYWGQGTLVTVSSASVAAPSVFIFPPSDEQLKSGTASVVCLLNNFYPREAKVQWKVDNALQSGNSQESVTEQDSKDSTYSLSSTLTLSKADYEKHKVYACEVTHQGLSSPVTKSFNRGEC
notes: also called TYRP1 TCB; TYRP-1 TCB
In the case of B7, the results for the Kd in assay [11] and in assay [12] were 50 nM and 20 nM, respectively.

B8: EGFRvIII TCB CD3 orig (EGFRvIII binder P063.056 and original CD3 binder, 2+1 IgG CrossFab inverted) (bispecific antibody)
heavy 1: not shown
heavy 2: EVQLVQSGAEVKKPGESLKISCKGSGYSFDSYWIAWVRQMPGKGLEWMGVIHPYDSDTRYSPSFQGQVTISADKSISTAYLQWSSLKASDTAMYYCARVSRSSYAFDYWGQGTLVTVSSASTKGPSVFPLAPSSKSTSGGTAALGCLVEDYFPEPVTVSWNSGALTSGVHTFPAVLQSSGLYSLSSVVTVPSSSLGTQTYICNVNHKPSNTKVDEKVEPKSCDKTHTCPPCPAPEAAGGPSVFLFPPKPKDTLMISRTPEVTCVVVDVSHEDPEVKFNWYVDGVEVHNAKTKPREEQYNSTYRVVSVLTVLHQDWLNGKEYKCKVSNKALGAPIEKTISKAKGQPREPQVCTLPPSRDELTKNQVSLSCAVKGFYPSDIAVEWESNGQPENNYKTTPPVLDSDGSFFLVSKLTVDKSRWQQGNVFSCSVMHEALHNHYTQKSLSLSP
light 1: not shown
light 2: EVQLLESGGGLVQPGGSLRLSCAASGFTFSTYAMNWVRQAPGKGLEWVSRIRSKYNNYATYYADSVKGRFTISRDDSKNTLYLQMNSLRAEDTAVYYCVRHGNFGNSYVSWFAYWGQGTLVTVSSASVAAPSVFIFPPSDEQLKSGTASVVCLLNNFYPREAKVQWKVDNALQSGNSQESVTEQDSKDSTYSLSSTLTLSKADYEKHKVYACEVTHQGLSSPVTKSFNRGEC
notes: chain roles inferred; also called P063.056 EGFRvIII TCB with CD3orig
As for B8, the Kd came to 40 nM in assay [8] and 6 nM in assay [10].

B9: TYRP1 TCB CD3 orig (T cell bispecific antibody to CD3 and TYRP1 with original CD3 binder, 2+1 IgG CrossFab inverted) (bispecific antibody)
heavy 1: not shown
heavy 2: QVQLVQSGAEVKKPGASVKVSCKASGFNIKDYFLHWVRQAPGQGLEWMGWINPDNGNTVYAQKFQGRVTMTADTSTSTVYMELSSLRSEDTAVYYCTRRDYTYEKAALDYWGQGTLVTVSSASTKGPSVFPLAPSSKSTSGGTAALGCLVEDYFPEPVTVSWNSGALTSGVHTFPAVLQSSGLYSLSSVVTVPSSSLGTQTYICNVNHKPSNTKVDEKVEPKSCDKTHTCPPCPAPEAAGGPSVFLFPPKPKDTLMISRTPEVTCVVVDVSHEDPEVKFNWYVDGVEVHNAKTKPREEQYNSTYRVVSVLTVLHQDWLNGKEYKCKVSNKALGAPIEKTISKAKGQPREPQVCTLPPSRDELTKNQVSLSCAVKGFYPSDIAVEWESNGQPENNYKTTPPVLDSDGSFFLVSKLTVDKSRWQQGNVFSCSVMHEALHNHYTQKSLSLSP
light 1: DIQMTQSPSSLSASVGDRVTITCRASGNIYNYLAWYQQKPGKVPKLLIYDAKTLADGVPSRFSGSGSGTDFTLTISSLQPEDVATYYCQHFWSLPFTFGQGTKLEIKRTVAAPSVFIFPPSDRKLKSGTASVVCLLNNFYPREAKVQWKVDNALQSGNSQESVTEQDSKDSTYSLSSTLTLSKADYEKHKVYACEVTHQGLSSPVTKSFNRGEC
light 2: EVQLLESGGGLVQPGGSLRLSCAASGFTFSTYAMNWVRQAPGKGLEWVSRIRSKYNNYATYYADSVKGRFTISRDDSKNTLYLQMNSLRAEDTAVYYCVRHGNFGNSYVSWFAYWGQGTLVTVSSASVAAPSVFIFPPSDEQLKSGTASVVCLLNNFYPREAKVQWKVDNALQSGNSQESVTEQDSKDSTYSLSSTLTLSKADYEKHKVYACEVTHQGLSSPVTKSFNRGEC
notes: chain roles inferred as for the CD3opt molecule
On to B9, for which, in assay [11], the Kd is 50 nM.

In general, Kd refers to the constant that tells how readily two partners part at equilibrium.
